The source of these data is patent US20230381281A1, “PHARMACEUTICAL COMPOSITION COMPRISING GLUCAGON/GLP-1/GIP TRIPLE AGONIST OR LONG-ACTING CONJUGATE THEREOF FOR PREVENTING OR TREATING LUPUS-RELATED DISEASES” (HANMI PHARM. CO., LTD., priority 2020, published 2023).

Holding throughout (experiment): cell-based or functional assay
One test has as its target human GLP-1 receptor (human, UniProt P43220 24-463).
A further test deals with human GCG receptor (human, UniProt P47871 26-477).
Another test has as its target T1, human GIP receptor (human, UniProt P48546 22-466).
T1 sequence (looked up): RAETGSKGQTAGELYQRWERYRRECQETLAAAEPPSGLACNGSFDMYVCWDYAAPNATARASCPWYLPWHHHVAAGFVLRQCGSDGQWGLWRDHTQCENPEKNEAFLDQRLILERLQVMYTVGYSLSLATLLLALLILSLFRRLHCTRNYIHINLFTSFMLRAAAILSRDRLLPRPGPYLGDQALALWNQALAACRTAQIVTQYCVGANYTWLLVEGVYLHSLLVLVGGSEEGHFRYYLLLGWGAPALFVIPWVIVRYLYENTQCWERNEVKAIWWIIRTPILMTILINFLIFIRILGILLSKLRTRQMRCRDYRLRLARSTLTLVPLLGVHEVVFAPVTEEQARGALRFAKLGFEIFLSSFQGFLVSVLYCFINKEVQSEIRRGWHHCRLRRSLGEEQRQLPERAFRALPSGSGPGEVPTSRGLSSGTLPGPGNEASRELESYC

Bridge positions count the residues as written; N and C are the ends. Square brackets hold non-standard residues; d marks the D form. Ends that are not written are not given here. * marks the point of attachment. Acetyl(2-(4-imidazolyl)) = O=C(Cc1c[nH]cn1)*; Aib = CC(C)(N)C(=O)O

Chain of human GCG receptor (P47871 26-477): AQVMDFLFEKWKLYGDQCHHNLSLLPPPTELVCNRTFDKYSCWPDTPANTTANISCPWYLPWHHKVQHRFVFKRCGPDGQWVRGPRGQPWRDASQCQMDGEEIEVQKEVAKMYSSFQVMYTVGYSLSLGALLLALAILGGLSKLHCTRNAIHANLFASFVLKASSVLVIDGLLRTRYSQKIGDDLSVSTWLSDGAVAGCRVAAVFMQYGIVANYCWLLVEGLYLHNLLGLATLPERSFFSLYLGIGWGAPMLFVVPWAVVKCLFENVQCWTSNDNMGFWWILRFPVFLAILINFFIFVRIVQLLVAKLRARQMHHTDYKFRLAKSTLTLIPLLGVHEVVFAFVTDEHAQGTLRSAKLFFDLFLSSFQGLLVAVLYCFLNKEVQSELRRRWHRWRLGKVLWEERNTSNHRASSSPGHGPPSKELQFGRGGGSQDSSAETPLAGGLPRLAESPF

Turning to Y[Aib]QGTFTSDYSKYLDEKRAKEFVQWLLDHCPSSGQPPPS (bridge 16-20) [Triple agonist of SEQ ID NO: 96], the “In vitro activity compared to native peptide (%) vs GLP-1” value (“In vitro activity … (%) vs GLP-1” below) with human GLP-1 receptor was 34.4%. In the test with human GCG receptor, the “In vitro activity compared to native peptide (%) vs Glucagon” value (from here on “In vitro activity … (%) vs Glucagon”) worked out at 195%. Further, the “In vitro activity compared to native peptide (%) vs GIP” value (from here on “In vitro activity … (%) vs GIP”) with human GIP receptor was determined as 5.2%.

In the case of Y[Aib]QGTFTSDYSKALDEKAAKDFVNWLLDHHPSSGQPPPSC (bridge 16-20) [Triple agonist of SEQ ID NO: 99], the “In vitro activity … (%) vs GLP-1” value in the test with human GLP-1 receptor came out at 20.9%. In addition, in the test with human GCG receptor, the “In vitro activity … (%) vs Glucagon” value was determined as 14.9%. For the same molecule, the “In vitro activity … (%) vs GIP” value in the test with human GIP receptor stood at 57.7%.

Consider {Acetyl(2-(4-imidazolyl))}-GEGTFISDLSKYMDEQAVQLFVEWLMAGGPSSGAPPPSHG [Triple agonist of SEQ ID NO: 12], for which the “In vitro activity … (%) vs GLP-1” value with human GLP-1 receptor came to 0.4%. Also, the “In vitro activity … (%) vs Glucagon” value in the test with human GCG receptor was less than 0.1%. In the test with human GIP receptor, the “In vitro activity … (%) vs GIP” value was less than 0.1%.

{Acetyl(2-(4-imidazolyl))}-[Aib]QGTFTSDYSIAMDEIHQKDFVNWLLNTKC (bridge 15-19) [Triple agonist of SEQ ID NO: 94]: in the test with human GLP-1 receptor, the “In vitro activity … (%) vs GLP-1” value was 0.5%. Also, the “In vitro activity … (%) vs Glucagon” value with human GCG receptor is less than 0.1%. Besides, the “In vitro activity … (%) vs GIP” value with human GIP receptor was less than 0.1%.

For the molecule Y[Aib]QGTFTSDYSKALDEKAAKEFVQWLLDQHPSSGQPPPSC (bridge 16-20) [Triple agonist of SEQ ID NO: 100], the “In vitro activity … (%) vs GLP-1” value with human GLP-1 receptor came out at 42.2%. Further, in the test with human GCG receptor, the “In vitro activity … (%) vs Glucagon” value is 12.7%. Besides, in the test with human GIP receptor, the “In vitro activity … (%) vs GIP” value turned out to be 118%.

As to Y[Aib]QGTFTSDYSKALDEKAAKDFVNWLLDQHPSSGQPPPSC (bridge 16-20) [Triple agonist of SEQ ID NO: 102], the “In vitro activity … (%) vs GLP-1” value with human GLP-1 receptor came to 23.3%. In addition, in the test with human GCG receptor, the “In vitro activity … (%) vs Glucagon” value came to 29.5%. For the same molecule, the “In vitro activity … (%) vs GIP” value in the test with human GIP receptor amounted to 58%.

Regarding {Acetyl(2-(4-imidazolyl))}-GEGTFTSDLSKYLDSRRQQLFVQWLKAGGPSSGAPPPSHG [Triple agonist of SEQ ID NO: 11], the “In vitro activity … (%) vs GLP-1” value with human GLP-1 receptor was 1.4%. In addition, the “In vitro activity … (%) vs Glucagon” value with human GCG receptor is less than 0.1%. In addition, the “In vitro activity … (%) vs GIP” value with human GIP receptor is less than 0.1%.

Take H[Aib]QGTFTSDVSKYLDGQAAQEFVAWLLAGGGPSSGAPPPSC [Triple agonist of SEQ ID NO: 10]: the “In vitro activity … (%) vs GLP-1” value with human GLP-1 receptor was found to be 46%. For the same molecule, the “In vitro activity … (%) vs Glucagon” value in the test with human GCG receptor was less than 0.1%. The “In vitro activity … (%) vs GIP” value in the test with human GIP receptor is less than 0.1%.

Y[Aib]QGTFTSDYSKALDEKAAKEFVNWLLDHHPSSGQPPPSC (bridge 16-20) [Triple agonist of SEQ ID NO: 98]: the “In vitro activity … (%) vs GLP-1” value in the test with human GLP-1 receptor is 28.1%. For the same molecule, in the test with human GCG receptor, the “In vitro activity … (%) vs Glucagon” value is 8.2%. Further, the “In vitro activity … (%) vs GIP” value with human GIP receptor worked out at 47.1%.

Y[Aib]QGTFTSDYSKYLDEKRAKEFVQWLLCHHPSSGQPPPS (bridge 16-20) [Triple agonist of SEQ ID NO: 95]: in the test with human GLP-1 receptor, the “In vitro activity … (%) vs GLP-1” value worked out at 2.1%. Moreover, the “In vitro activity … (%) vs Glucagon” value with human GCG receptor came out at 0.4%. In addition, the “In vitro activity … (%) vs GIP” value with human GIP receptor is less than 0.1%.

As for Y[Aib]QGTFTSDYSKYLDEKRAKEFVQWLLDCHPSSGQPPPS (bridge 16-20) [Triple agonist of SEQ ID NO: 97], the “In vitro activity … (%) vs GLP-1” value with human GLP-1 receptor was determined as 10.5%. For the same molecule, in the test with human GCG receptor, the “In vitro activity … (%) vs Glucagon” value worked out at 62.8%. For the same molecule, the “In vitro activity … (%) vs GIP” value in the test with human GIP receptor was 2.6%.
